Results published in patent publication EP4663202A1 (Innovent Biologics (Suzhou) Co., Ltd., dated 2025).

Experiments:
human VEGFC [1] = biological target: T1, human VEGFC (human, UniProt P49767 103-227, limits assumed); assay: biolayer interferometry (ForteBio), monovalent antigen-antibody binding, 30 C
T1 construct: also called hVEGFC; VEGFC-biotin (biotin-labeled human VEGFC)
T1 sequence (looked up): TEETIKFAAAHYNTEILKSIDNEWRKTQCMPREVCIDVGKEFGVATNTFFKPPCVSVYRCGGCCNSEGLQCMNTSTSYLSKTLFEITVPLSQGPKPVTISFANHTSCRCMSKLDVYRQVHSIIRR

human VEGFC [2] = biological target: T1, human VEGFC; assay: cell-based or functional assay

B1: anti-VEGFC antibody am63G12.1-5G8-18B9 (VHH)
VHH: EVQLVESGGGLVQPGGSLRLSCAASGSSFSPYAMGWYRQAPGKQRELVSATSSGGFTLYADSVKGRFTISRDNSKNTVYLQMNSLRAEDTAVYYCYTYYREYDPEMYWGQGTQVTVSS
notes: also called anti-VEGFC humanized VHH antibody
- Kd (human VEGFC [1]): 5.7 nM
- koff (human VEGFC [1]): 0.00036 s⁻¹
- kon (human VEGFC [1]): 63100 M⁻¹ s⁻¹
- IC50 of inhibition of VEGFC-induced activation of the KDR signaling pathway (NFAT-RE-luc2P/KDR HEK293 reporter cells) (human VEGFC [2]): ~4.46 nM
- IC50 of inhibition of hVEGFC-induced BaF3-FLT4 survival and proliferation (CCK-8) (human VEGFC [2]): 0.792 nM
